Series [1] has as its system T1, O=C[C@H](O)[C@@H](O)[C@H](O)CO.
T1 construct: made in house; host or cells: E. coli K514
The series can be described thus: purified protein, by the assay type. Format: biochemical, Actinoplanes missouriensis. The conditions noted are these: other: xylose, 35° C., 10 mM Mg2+, pH 7.5. How it is done: Alternatively, the D-fructose produced during the isomerization reaction can be determined enzymatically using sorbitol dehydrogenase and NADH.
As a measure of specificity the quotient is Vmax /Km is sometimes used (Wells et al., ibid). […] These temperatures are chosen for practical reasons.
Activities were measured on purified enzyme. The coupled sorbitol dehydrogenase assay was used for xylose, the cysteine-carbazole or discontinuous sorbitol dehydrogenase method was used for glucose.

In series [2] the test system is O=C[C@H](O)[C@@H](O)[C@H](O)CO. As to the kind of experiment: purified protein, by the assay type. The conditions noted are these: pH 7.5.

Sequence of Actinoplanes missouriensis glucose isomerase, wild type, SEQ ID NO: 1 (Actinoplanes missouriensis 431) (chain, as listed by the source): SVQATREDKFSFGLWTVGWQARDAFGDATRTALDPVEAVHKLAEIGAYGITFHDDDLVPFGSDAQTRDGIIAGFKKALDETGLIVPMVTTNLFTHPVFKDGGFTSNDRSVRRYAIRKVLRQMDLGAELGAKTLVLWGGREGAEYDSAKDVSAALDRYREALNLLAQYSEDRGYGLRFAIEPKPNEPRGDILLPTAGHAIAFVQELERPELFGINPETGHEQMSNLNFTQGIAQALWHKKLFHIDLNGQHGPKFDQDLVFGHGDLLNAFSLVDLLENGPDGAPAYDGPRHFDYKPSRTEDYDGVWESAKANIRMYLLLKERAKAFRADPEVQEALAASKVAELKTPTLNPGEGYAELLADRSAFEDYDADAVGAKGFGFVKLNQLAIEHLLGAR
Sequence of Actinoplanes missouriensis glucose isomerase variant T90S (Actinoplanes missouriensis 431; T90S) (chain, as listed by the source T90S T90S): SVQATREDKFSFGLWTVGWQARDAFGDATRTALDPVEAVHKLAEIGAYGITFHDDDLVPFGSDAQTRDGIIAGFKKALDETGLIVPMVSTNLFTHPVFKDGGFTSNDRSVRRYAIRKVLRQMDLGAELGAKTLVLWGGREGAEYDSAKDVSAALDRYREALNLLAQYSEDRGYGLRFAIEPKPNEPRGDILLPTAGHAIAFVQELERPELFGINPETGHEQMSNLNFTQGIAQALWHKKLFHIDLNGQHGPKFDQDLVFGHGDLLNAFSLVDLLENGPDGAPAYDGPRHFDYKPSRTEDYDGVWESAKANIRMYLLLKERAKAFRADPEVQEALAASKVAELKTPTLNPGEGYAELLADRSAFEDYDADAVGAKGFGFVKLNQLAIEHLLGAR
Sequence of Actinoplanes missouriensis glucose isomerase variant A25K (Actinoplanes missouriensis 431; A25K) (chain, as listed by the source A25K A25K): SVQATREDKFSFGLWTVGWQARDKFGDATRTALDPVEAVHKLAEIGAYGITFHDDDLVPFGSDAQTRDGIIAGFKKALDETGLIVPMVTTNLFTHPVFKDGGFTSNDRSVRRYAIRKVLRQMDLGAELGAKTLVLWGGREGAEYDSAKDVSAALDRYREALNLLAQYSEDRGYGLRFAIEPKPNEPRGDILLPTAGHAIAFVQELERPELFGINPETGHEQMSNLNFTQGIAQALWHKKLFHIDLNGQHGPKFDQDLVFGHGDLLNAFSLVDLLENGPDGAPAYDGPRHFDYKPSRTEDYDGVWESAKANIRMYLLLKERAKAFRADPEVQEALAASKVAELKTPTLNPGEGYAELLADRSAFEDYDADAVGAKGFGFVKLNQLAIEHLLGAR
Sequence of Actinoplanes missouriensis glucose isomerase variant M88SH243N (M88S/H243N) (Actinoplanes missouriensis 431; H243N/M88S) (chain, as listed by the source M88S H243N H243N M88S): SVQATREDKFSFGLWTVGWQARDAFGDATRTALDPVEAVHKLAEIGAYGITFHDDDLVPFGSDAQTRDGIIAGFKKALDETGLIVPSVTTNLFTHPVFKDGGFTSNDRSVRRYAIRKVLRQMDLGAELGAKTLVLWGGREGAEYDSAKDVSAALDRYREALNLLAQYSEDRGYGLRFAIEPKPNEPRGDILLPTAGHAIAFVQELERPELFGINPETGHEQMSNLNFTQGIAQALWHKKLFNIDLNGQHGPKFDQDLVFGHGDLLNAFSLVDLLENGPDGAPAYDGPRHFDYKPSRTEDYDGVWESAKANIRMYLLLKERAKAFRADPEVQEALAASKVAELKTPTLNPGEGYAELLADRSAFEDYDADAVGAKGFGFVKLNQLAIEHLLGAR
Sequence of Actinoplanes missouriensis glucose isomerase variant M88SH290N (M88S/H290N) (Actinoplanes missouriensis 431; H290N/M88S) (chain, as listed by the source M88S H290N H290N M88S): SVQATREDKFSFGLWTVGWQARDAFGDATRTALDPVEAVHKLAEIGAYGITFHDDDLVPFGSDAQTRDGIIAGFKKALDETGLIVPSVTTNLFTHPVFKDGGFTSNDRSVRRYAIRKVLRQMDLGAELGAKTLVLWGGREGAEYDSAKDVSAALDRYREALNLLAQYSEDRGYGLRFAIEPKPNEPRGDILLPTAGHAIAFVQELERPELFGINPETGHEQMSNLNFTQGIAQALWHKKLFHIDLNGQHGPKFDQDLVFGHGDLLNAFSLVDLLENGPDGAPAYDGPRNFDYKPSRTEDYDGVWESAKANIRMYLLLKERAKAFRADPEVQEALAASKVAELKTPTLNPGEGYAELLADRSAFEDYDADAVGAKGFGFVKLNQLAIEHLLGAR
Sequence of Actinoplanes missouriensis glucose isomerase variant M88S (Actinoplanes missouriensis 431; M88S) (chain, as listed by the source M88S M88S): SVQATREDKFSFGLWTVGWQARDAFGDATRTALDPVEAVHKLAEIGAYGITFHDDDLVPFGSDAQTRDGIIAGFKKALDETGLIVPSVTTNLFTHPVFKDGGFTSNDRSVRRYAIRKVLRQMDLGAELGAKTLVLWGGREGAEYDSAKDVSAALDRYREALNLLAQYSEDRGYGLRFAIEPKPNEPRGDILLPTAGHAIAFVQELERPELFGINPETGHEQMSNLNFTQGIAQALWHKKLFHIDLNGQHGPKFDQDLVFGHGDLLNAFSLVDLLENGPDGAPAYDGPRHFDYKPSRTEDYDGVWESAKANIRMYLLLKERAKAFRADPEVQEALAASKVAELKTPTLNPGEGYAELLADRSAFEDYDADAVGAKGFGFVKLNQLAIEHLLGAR
Sequence of Actinoplanes missouriensis glucose isomerase variant H290N (Actinoplanes missouriensis 431; H290N) (chain, as listed by the source H290N H290N): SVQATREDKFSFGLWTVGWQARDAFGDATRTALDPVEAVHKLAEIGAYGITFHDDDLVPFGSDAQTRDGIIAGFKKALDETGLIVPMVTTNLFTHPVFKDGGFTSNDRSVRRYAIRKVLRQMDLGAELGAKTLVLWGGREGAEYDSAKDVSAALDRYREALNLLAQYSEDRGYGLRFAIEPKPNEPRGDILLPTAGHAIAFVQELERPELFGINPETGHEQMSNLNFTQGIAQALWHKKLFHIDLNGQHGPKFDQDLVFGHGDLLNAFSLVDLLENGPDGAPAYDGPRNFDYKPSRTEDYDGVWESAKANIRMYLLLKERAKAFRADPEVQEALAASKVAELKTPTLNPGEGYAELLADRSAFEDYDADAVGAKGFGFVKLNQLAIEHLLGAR
Sequence of Actinoplanes missouriensis glucose isomerase variant V135Q (Actinoplanes missouriensis 431; V135Q) (chain, as listed by the source V135Q V135Q): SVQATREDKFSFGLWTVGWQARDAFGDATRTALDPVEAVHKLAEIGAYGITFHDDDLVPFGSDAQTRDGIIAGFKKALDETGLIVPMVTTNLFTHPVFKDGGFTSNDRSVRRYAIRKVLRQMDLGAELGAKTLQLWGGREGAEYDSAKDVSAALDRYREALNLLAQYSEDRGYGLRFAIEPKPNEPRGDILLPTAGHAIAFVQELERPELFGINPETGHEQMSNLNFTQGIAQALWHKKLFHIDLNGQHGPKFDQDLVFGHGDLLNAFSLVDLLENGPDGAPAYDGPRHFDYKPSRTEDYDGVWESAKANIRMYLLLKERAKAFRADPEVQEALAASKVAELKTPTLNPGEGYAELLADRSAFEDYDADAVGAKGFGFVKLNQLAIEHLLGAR

Take “Actinoplanes missouriensis glucose isomerase variant A25K (Actinoplanes missouriensis 431; A25K)”: in series [1], the Km was determined as 2.73 mM. With “Actinoplanes missouriensis glucose isomerase variant H290N (Actinoplanes missouriensis 431; H290N)”, the Michaelis constant (Km) in series [1] is 9.7 mM.

“Actinoplanes missouriensis glucose isomerase variant M88S (Actinoplanes missouriensis 431; M88S)”: the Km in series [1] was determined as 7.6 mM. On to “Actinoplanes missouriensis glucose isomerase variant M88SH243N (M88S/H243N) (Actinoplanes missouriensis 431; H243N/M88S)”, for which the Km in series [1] was 11.9 mM. Take “Actinoplanes missouriensis glucose isomerase variant M88SH290N (M88S/H290N) (Actinoplanes missouriensis 431; H290N/M88S)”: the Michaelis-Menten constant (Km) in series [1] worked out at 14.8 mM. Same read-out and setting: in the case of “Actinoplanes missouriensis glucose isomerase variant T90S (Actinoplanes missouriensis 431; T90S)” it was 16.8 mM; in that of “Actinoplanes missouriensis glucose isomerase variant V135Q (Actinoplanes missouriensis 431; V135Q)”, 56 mM. “Actinoplanes missouriensis glucose isomerase, wild type, SEQ ID NO: 1 (Actinoplanes missouriensis 431)”: the Km amounted to 13.2 mM in series [2] (other: 35° C., 1 mM Mn) and 4.8 mM in series [2] (other: xylose, 35° C., 10 mM Mg2+). The Vmax in series [2] (other: 35° C., 1 mM Mn) was 8.6 µmol/min/mg.

For orientation: Km means the concentration of substrate that gives half-maximal velocity. One may read the Vmax as the rate approached at saturating substrate.

The record behind these values is patent publication US5310665A, “Glucose isomerases having altered substrate specificity” (Gist-brocades, N.V., priority 1990, dated 1994).
